In patent US20200277392A1 (Hoffmann-La Roche, published 2020):

Tests used:
human TnC on cells [1] = molecular target: T1, human TnC on cells (human, UniProt P24821 23-2201); assay: flow cytometry on CT26huTnC cells
T1 construct: Endogenous on U87-MG cells (low or intermediate level) and stably transfected in CT26 cells (CT26huTnC, high level); also called cell surface human TnC; TnC on U87-MG cells

human TnC on cells [2] = molecular target: T1, human TnC on cells; assay: flow cytometry on U87-MG cells
human OX40 on cells = molecular target: T2, human OX40 on cells (human, UniProt P43489 29-277); assay: flow cytometry on activated human PBMC, gated on CD4+ T cells; FITC anti-human IgG secondary; MFI baseline corrected
T2 construct: also called CD134; OX40+ Cells
T2 sequence: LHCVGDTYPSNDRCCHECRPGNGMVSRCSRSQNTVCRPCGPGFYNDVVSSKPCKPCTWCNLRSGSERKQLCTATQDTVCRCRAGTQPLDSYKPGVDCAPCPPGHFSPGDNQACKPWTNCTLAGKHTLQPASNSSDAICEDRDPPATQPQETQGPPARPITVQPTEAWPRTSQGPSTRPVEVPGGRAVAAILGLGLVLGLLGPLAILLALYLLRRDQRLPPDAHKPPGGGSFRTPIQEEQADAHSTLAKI
Procedure: For labeling, cells were harvested, washed with pre-warmed (37° C.) DPBS and adjusted to a cell density of 1×10⁷ cells/mL in DPBS. eFluor670 cell proliferation dye (eBioscience, Cat.-No. 65-0840-85) was added to the suspension of naïve human PBMC at a final concentration of […] and a final cell density of 0.5×10⁷ cells/mL in DPBS. Cells were then incubated for 10 min at room temperature in the dark. To stop the labeling reaction, 4 mL heat inactivated FBS was added and cells were washed three times with T cell medium. A 2:1 mixture of 1×10⁵ resting eFluor670 labeled human PBMC and 0.5×10⁵ unlabeled activated human PBMC were then added to each well of round-bottomed suspension cell 96-well plates (Greiner bio-one, cellstar, Cat. No. 650185).
Cells were stained for 120 minutes at 4° C. in the dark in 50 μL/well 4° C. FACS buffer containing different amounts of the indicated antigen binding molecules. After three washes with 4° C. FACS buffer, cells were stained for 45 minutes at 4° C. in the dark in 25 μL/well 4° C. FACS buffer containing a mixture of fluorescently labeled anti-human CD4 (clone RPA-T4, mouse IgG1 k, BioLegend, Cat.-No. 300532), anti-human CD8 (clone RPa-T8, mouse IgGlk, BioLegend, Cat.-No. 3010441) and Fluorescein isothiocyanate (FITC)-conjugated AffiniPure anti-human IgG Fcγ-fragment-specific goat IgG F(ab′)₂ fragment (Jackson ImmunoResearch, Cat.-No. 109-096-098). […]

T1 sequence (P24821 23-2201 limits assumed): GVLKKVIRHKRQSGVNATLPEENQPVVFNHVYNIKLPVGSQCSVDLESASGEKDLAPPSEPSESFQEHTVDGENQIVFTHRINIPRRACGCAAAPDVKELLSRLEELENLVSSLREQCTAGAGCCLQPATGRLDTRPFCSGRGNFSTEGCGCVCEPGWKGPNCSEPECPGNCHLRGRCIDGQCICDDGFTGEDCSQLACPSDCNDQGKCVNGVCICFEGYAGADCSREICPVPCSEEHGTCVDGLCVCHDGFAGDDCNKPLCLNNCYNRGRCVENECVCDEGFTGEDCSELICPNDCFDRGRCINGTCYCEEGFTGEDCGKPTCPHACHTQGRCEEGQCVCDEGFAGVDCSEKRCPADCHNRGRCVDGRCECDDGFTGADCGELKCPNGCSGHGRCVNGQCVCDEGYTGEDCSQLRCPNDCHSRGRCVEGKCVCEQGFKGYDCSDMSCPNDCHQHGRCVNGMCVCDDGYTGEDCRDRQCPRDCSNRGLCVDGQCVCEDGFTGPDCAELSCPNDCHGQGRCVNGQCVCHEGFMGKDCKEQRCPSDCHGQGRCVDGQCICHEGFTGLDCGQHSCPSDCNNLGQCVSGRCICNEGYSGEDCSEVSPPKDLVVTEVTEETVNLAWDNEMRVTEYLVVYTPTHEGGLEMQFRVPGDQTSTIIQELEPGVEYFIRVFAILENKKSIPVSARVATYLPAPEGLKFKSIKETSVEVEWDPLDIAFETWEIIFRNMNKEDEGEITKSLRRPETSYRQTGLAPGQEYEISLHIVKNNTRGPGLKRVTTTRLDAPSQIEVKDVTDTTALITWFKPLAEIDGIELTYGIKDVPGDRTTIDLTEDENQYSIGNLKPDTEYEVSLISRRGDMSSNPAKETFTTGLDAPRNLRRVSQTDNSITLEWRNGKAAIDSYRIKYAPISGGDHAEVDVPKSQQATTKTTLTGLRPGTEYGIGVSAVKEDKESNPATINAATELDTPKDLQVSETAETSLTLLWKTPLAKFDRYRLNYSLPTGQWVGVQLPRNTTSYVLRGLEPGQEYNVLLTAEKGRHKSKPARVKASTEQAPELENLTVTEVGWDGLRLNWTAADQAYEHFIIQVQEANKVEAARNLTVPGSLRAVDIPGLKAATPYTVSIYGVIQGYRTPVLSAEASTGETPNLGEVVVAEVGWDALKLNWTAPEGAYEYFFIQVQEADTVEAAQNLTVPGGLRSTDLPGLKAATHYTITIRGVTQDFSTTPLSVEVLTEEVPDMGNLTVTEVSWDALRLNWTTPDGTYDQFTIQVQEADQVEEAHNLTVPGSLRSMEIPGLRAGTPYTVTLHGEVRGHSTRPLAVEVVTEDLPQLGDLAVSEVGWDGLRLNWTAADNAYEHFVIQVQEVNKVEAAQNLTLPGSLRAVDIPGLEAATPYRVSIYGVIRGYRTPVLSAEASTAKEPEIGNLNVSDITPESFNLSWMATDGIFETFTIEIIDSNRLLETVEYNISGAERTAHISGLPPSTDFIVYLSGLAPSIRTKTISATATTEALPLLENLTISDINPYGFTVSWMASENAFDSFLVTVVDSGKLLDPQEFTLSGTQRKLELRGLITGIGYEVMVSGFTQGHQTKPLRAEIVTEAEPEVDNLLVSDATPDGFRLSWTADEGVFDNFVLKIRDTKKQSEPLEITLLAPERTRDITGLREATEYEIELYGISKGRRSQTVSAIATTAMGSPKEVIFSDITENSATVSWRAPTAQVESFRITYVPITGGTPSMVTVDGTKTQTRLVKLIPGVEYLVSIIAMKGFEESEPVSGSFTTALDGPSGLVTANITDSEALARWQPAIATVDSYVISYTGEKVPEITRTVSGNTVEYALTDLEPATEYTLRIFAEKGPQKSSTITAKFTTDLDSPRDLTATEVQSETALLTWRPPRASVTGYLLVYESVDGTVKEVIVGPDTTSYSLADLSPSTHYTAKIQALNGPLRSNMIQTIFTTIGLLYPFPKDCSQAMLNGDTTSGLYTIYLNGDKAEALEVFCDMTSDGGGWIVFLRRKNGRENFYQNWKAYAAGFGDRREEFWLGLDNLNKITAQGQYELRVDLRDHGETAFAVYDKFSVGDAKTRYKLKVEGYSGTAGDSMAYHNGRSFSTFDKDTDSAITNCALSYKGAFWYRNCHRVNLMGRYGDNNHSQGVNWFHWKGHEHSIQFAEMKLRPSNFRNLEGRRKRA

B1: parental bivalent anti-TnC antibody clone18D4 (antibody, V domains shown)
VH: QVQLVQSGAEVKKPGSSVKVSCKASGGTFSSYAISWVRQAPGQGLEWMGGIIPIFGTANYAQKFQGRVTITADKSTSTAYMELSSLRSEDTAVYYCAKGNFYGGLDYWGQGTTVTVSS
VL: DIQMTQSPSTLSASVGDRVTITCRASQSISSWLAWYQQKPGKAPKLLIYDASSLESGVPSRFSGSGSGTEFTLTISSLQPDDFATYYCQQNKKFPSGTFGQGTKVEIK
notes: Human IgG1; also called αTnC (18D4); anti-TnC 18D4 IgG
**Q.** For B1, which EC50 (human TnC on cells [1]) is on record?
**A.** 2.69 nM

**Q.** And the EC50 (human TnC on cells [2])?
**A.** 8.21 nM

**Q.** Does B1 bind (human OX40 on cells)?
**A.** no binding (tested: 100 nM)
